This series can be described thus: label from the status in PepcDB records.

As for “MSSFFSVLLVLGGLIFFHELGHYLAARVLGIGVHTFSLGFGPRIFGWRSGQTDYRLSLIPLGGYVSLAGESDDEIPEGFTKGQMFSARPAWHRLIVIAAGPVFNLLLAWFIYWGLTFVHGQFIVLPEVGKVLEGGPAAAAGVQSGDRIVAIDGVSIERWDQVSDAIAASKGAPVTLSLTRNEGQHELRIVPEHRTRKTIFGDEEDAFLIGIQASGATMTLPQTPVEAAVTGARQTWTMIAMTGKGVVKLFERVVPLDTVGGPIMIAQMVSREAKDSGITGVLALAALISINLGLLNLLPIPVLDGGHIIFLGLEMLFRRPVPQKVQEVTTRMGLVLLLGLMFLATYNDIVRIGQ”, the protein production entry is “failed”.

For the sequence “MSSKNTAEVILGGKVIKLGGYESEEYLQRVASYINNKITEFNKEESYRRMSAELRTDMMYLNIADDYFKAKKMADSLSLDIENKDKEIYDLKHELIAAQIKAESSAKEIKELKSEINKYQKNIVKLETELNDSKK”, the protein production result is “not failed”. Under “MSSLLYARVRANARFQQLVARRNRFTLSLFVLILATFYGYIGLVSFWPELIARRLAQGSNMTVGVAAGAFLFVFFCALSAFYVYRANGEFDSLTQALLSGLEEEQGA” stands “failed”. Under “MSSLTARWHRSIQEIPEQHWQALVSDHAIPFYRWSWLEALESSGSIIPEQGWQPLHLALWRGDVPIAVAPLYLKGHSYGEFVFDQTFARLAGDLGLRYYPKLLGMSPVSPVLGYRFHVLPGEDEAELTAVLLRAIDAFCEHNSILSCNFLYVDPQWRPLAEAAGCATWLNQQSLWSRGDDQSFDDYLNGFNANQRRNIKRERKAVAKAGLTVTPLTGEQLDLELFQIMHGFYEQHCARWGPWGSKYLEQGFFEALAGLHREQVVLFSAHRGDPREPVAMSMCVRDDHHLWGRYWGSEEEIDCLHFEVCYYAPIEWAISQGIDSFDPGAGGSHKRRRGFVARPHASLHRWYQPQMDGLIRAWLPKVNGLMLEEIEAINAELPFKADAPSLSL” stands “failed”. Under “MSSMYTTFAEQYDNVVQDNIYNAYLERPSLQAMLGDVNGCDVIDLGCGSGVYADYFIHRGVAKLTCIDYSPNMIEIVKRKFGDRVTAYAQDASIGLIKEASESADLIISPLMIHYLEDLSVLFNDVARVLKNGGNFAFSTHHPFADFECTLSGNYFEREFITEMWNTVGEPVEVTFYRRSLTEIMNAITDSGLVVTQLSEGKVAEEVKQISLEKYEYLSKNPNFIFIKCQKLV” stands “failed”; under “MSSNAQVRPPLPPFTRESAIEKIRLAEDGWNSRDPERVSLAYTLDTQWRNRAEFAHNREEAKAFLTRKWAKELDYRLIKELWAFTDNRIAVRYAYEWHDDSGNWFRSYGNENWEFDEQGLMARRFACINDMPIKAQERKFHWPLGRRPDDHPGLSELGLLEHHHHHH”, “not failed”. For “MSSNMQQTINVWDPLIRIFHWSLVGFFTLAYLTEGEDEWMNIHSYAGYSILTLLVFRLLWGVIGTHHARFNHFITRPSIAWTYLKQLFSGNAKDYIGHNPAGALMIIALITSIAVAGFSGMALYATDSQGPLATSFFATWPEGALKEVHEFFANFSLFLIATHIGGVIVSSLLHKENLIRAMVTGKKQRPLIQQDERQ”, the protein production result is given as “failed”. Under “MSSPAILLFDIDGVIRDVAGSYRRALQVTVEHYSGWQPMAADIDALKAEGCWNNDWDASLELLRRHENDVPSRSELIEVFSGFYFGGDPEGDPAEWQGFIGDEPLLVTRAFFDELTRHDIRWGFVSGAEPPSARYVLQQRLDLKDPPLIAMGDAPDKPDPTGLIRLAEQMAAGEVPHWIAYIGDTVADVQTVLNARKRRPELPWRSLAVAPPHVTDVSTYHRQLQDAGADRIVGATRELLPMLLDELA” stands “failed”; under “MSSPARSPSVGGATPKQGARTPTRGIASQDVETPMRMGPGRAVRPSDNISLPPTSPGNISLPATSPARGLGANMSEIDLSSPLNYGTPSSMGSIRTPRSGIRGTPLRARPDIRTDKRIRQVAIGGGSGLEPIPEKGSETTDPVSESSQAPQLVVWGTNVVVSQCKSKFKSFIMRFIDPSAEQDEISENIDVNQPLYLQKLEEIHTLEEPYLNLNCAHLKTFDQDLYRQLICYPQEVIPGFDMAINEMFFERYPAALLEHQIQVRPFNADKTRNMRSLNPEDMDQLISISGMVIRSSNVIPEMREAFFSCNICSFSTTVEVDRGRINQPTLCTNCNTNHCFRLIHNRSEFTDKQLVKLQESPDDMAAGQTPHNVLLYAHNDLVDKVQPGDRVTVTGIYRATPLKTGGLSSSVKSVYKTHVDVVHFRKVDNKRLYEDEEGKDHIFPPERVELLQLLAKKPDIYDRLARAIAPSIYENDDIKKGILLQLFGGTKKKHATLGRQNFRSEIHLLLCGDPGTSKSQMLQYVFNLVPRSQYTSGRGSSAVGLTAYVTKDPETRQLVLQTGALVLADNGVCCIDEFDKMNDSTRSVLHEVMEQQTLSIAKAGIICQLNARTSILAAANPAESQWNKRKNIIDNVQLPHTLLSRFDLIFLVLDPQDEIFDKRLASHLVSLYYVTRHEEEDTMFDMSVLRDYIAYAREHLSPTLSDEAQQRLIQAYVDMRKVGAGRGQISAYPRQLESLIRLSEAHAKVRLSNQVELLDVEEAWRLHREALKQSATDPLSGKIDVGILTTGLSTAARKKRADLVAAIKENLKKKGKVLTVPYQKLFSDIKEGSQIMITREQFEDALKEVQDEGAIVVMGKNTIRIC”, “failed”. Under “MSSPKISIIIPVYMAESYLHRCVDSIITQTFTDWELLLVDDGSPDHSGELCEKYASAYKSRIKAFHKPNGGVASAREFGMQQARGEYSIHVDPDDWIDSNTLEELYQQAVKEQADMVICDFMMEYPNRQIHNCQKPQLLDSSSFMHQLLQQERHGSLCNKLIRTELYHKYQLHFPEKMICWEDLYICCSILLHGCKLAYVPHALYHYDFYTNDNSMVRHTDMRGLQAQIDFCRLMQAKISPEYLPELNELKGITLITAFRNQLLNEQAIRSLFPEINDWYVTRYGHDYEKSNYYGLTLVLRGYNFKTARRRMFVAKFLVQIKNKITRMLLEHHHHHH” stands “not failed”.

In the case of “MSSPSEFPLSEAPQSARKGLLPIAMVLFSFTFFTGTMFAGGKLGMAFSFVDMLWVATLGNSLLALYAAALAFIASRSGLNTVLMGRFCFGEAGSRLSDFLLGFAELGWYAWGTATVAIVLVKLLGLADGFGMPLMVLFGLGFSITAIIGFKGLDLLSRVSVPLMFVLLLVSMYIATRDAGGFAGLAAVVPHETMTFSAAVTMVFGTFASGATQATNWTRLARSGRVAVIASGVAFLLGNGLMVVAGAWCAMVYQQADIVDVMMLQGLSFAAVVMLCLNLWTIQGPTIYNVSAAACHLLRSERRRTATLVAAGVGIVLAMGGMYEMLIPFLVLLGSIIPPVGGVIMADFWYRHRGKYPPLCTANLPRYNLTGLFAYAVGAVLAYASPWVAPLVGIAASAVCYIVILELGARRRAPGQAGVEP”, the protein production entry is on record as “failed”. Under “MSSPSRTVTLPDIMCPKCIKCGSERTHHSRVRPSERTLSMLFLRPIRCRQCKERFWVKNSNAFLALGGVLFIGALLITTVWLIIEHNMADPYAGSAPEIGTEDPADSVARGTSKSQNGQEALSAPAPGTRGTHDVTQSPGSIPSSAPARNPLEDHRFTVRLYQEAANNGDADSQYKLGLLYLTGNGALQDFAEAAKWLQLAAEQGYGPAQYELGLIYRNGYGLPTDHVQSYVWLNLAAAAGVQQAMGARDEVMRALSSKQLAQAQKISREWLAARTGPESGKEADRVESAHPRRK” stands “failed”; under “MSSRNTLGNDEPMNQEKEGVESKDTPRTETKGVEKKHSVLVKQDWLPSDYAQYVDEKILNIGFEPDTFQRQAFYLLSRASSVFVSAHTSSGKTLVAEYAISLSQIHGTRTIYTSPIKALSNQKYHDFKQKYDDVGIITGDVQVNPAAKCLVMTTEILRNLVYRNGDLLRDTEFVVFDEVHYINDSERGVVWEECIIMIPRHINFIMLSATIPNSLEFSEWVGRTKDKTIYVISTSKRAVPLEHVIYCDWCVYSIDDGGGKRNASNFKGDLVPFSKKTRPTGKFKILDVANFVVKKKLTPAIFFCFSKRKCEDYAEILRTLNLNDTKSREEVKLFLSEATRCLSPEDRNLPQVLSMSSMVLNGVAVHHGSLLPFVKECVELLFSMNLVKLLIATETFAMGVNMPAKCCVFLSLSKIDGGVFRYISSGEYIQMSGRAGRRGMDAVGTVMIADPKMPSLSTIQGIIHGTPFSLSSQFRLSFGLILISLRSNIRVEDLMRRSYGEHRSQRNYERDMKKLSELESVEEDVCNVCGDLSKYIGAVEEICARNWKLIAKHHVLKEGSRVLLKNNAVGTVERVSGATVFLKQKDEALDNGTPIPTKFLAYPLGTRKPLDRSKVTFENIFCVLDGEKALWNYETANVMDVLEIRKIKSLYDYLLSEQQVCREFDQHYSNALRVHCKRKEMNDIKIRYNVCSLGMIDEYNRRMEFLKKKGFVEEMITIKGRAAAEIHTVNEVLVVEMIFSNEFRQMDGRKIVSLMSSMIHEEADGQELGKALYDECKRMDECFRELSRDLDELMIPPFTPLNFSLVDAVYDWCNGSSLGKIVSRYNVLEGTFVRLVLRLEECCRELISVSTMIGDKSLEEKIGDASASMKRDIIFLPSLYL”, “failed”.

Consider “MSSRSHARPEAVTRIASLAECGETVACMACARYPSCLAHLRLRMKRHFSMLRDFQLADWFTLANAFCGTGAVFAAMRFLQEEHRGDLLLGMALIPLAFVFDALDGHVARWRKASSTLGRELDSLADVISFGVAPAALGYACGMRGGWDWLVLSYFVCCGVSRLARYNVTAEEIAGEADKVPYFEGTPIPTSLLLVILLAVAASIGHIGETLWWGQWQLGPWQFHPLVLLFAVSGSLMISKTLRIPKL”, for which the protein production entry is “failed”. On to “MSSSHLAERHAFSDLSLLSEALAQSVTVTLRNAIERYGKASLVVPGGHTPVVYLPRLAQMDLPWQQVFITLSDERWVEPTSEQSNERLVREHFLQHMQQQPHFIALKTGHIHPDQAITDIDARLAELPQPFSLVILGLGEDGHIASLFPGMALNPDTTSLCQTATPPAAPSLRISLSLHALINSDRIILVITGKEKRQLIDRLIESPDQNIPFVRLMQFKPVELFETD”, for which the protein production entry is “not failed”. With “MSSSLMTSSGFRFLFPIALLGMVSVGMGNIIQMTQSNWGIAANLPYILLGCALVLCYSFKQGRESMVCLSMLVAYFVIQHRLQVPLNSGTALLELTILATLLPVSFLTVFLFNKDGFDSKAMFIYVLMLVMFILWSYIILAYYVDGGFEQWTSGILFIVPSVSKLPFILVLYCVGIVCFLGILLLKTNKIIHAMTYSAMALASATFIFFDVQYISSTMFTLTGLLIIIYSTSASHQLAFTDSLTQIPSRRALDLDLKHMGRKFTIAMLDVDHFKKFNDTYGHDIGDDVLKMVASRLMKTRGGAKVYRFGGEEFTMVFKGKNVEDCRQYIEEARKAIAEYEMILRDKASRPDDHKQGQQNRGTEDMQRESVFVTASFGAADSRNGREPAEVIKLADAALYKAKKAGRNCTRVNQN”, the protein production entry is given as “failed”. With “MSSTALEMASRFVNRSPFNRWLGMSVLEAGEQGIVLGIKWREELISSPEIRSTHGGILATLVDAAGDYAVALKTGHPVPTMDMHVDYHRVATPGDLRAEGQVIHFGKRFATAHARVLDMDGNLVASGRALYLIRAPQPGAAQGAA”, the protein production result is given as “failed”. Under “MSSTKRQKNRVLVKLKKRKVRKDKIEKWAELALSALGLNNVELSVYITDDQEIRELNKTYRKKDKPTDVLSFPMGEEFGGYKILGDVVISQDTAERQARELGHSLEEEVKRLIVHGIVHLLGYDHEKGGEEEKKFRELENYVLSKLSKAL” stands “not failed”.

These data come from a protein production outcome set (Wang et al. 2014).
